Reference: US20120171195A1
Blank lines part the entries; values can stand above or below the substance they belong to.

Columns and labels:
HLA-Cw*0202 (human) = assay: Luminex beads; MAb 1/100; competitor rHLA-E
HLA-Cw*1502 (human) = assay: Luminex beads; MAb 1/100; competitor rHLA-E
HLA-Cw*0304 (human) = assay: Luminex beads; MAb 1/100; competitor rHLA-E
HLA-Cw*1701 (human) = assay: Luminex beads; MAb 1/100; competitor rHLA-E
HLA-Cw*0702 (human) = HLA-Cw*0702 (human) (UniProt P10321); assay: Luminex beads; MAb 1/100; competitor rHLA-E
HLA-B*1513 (human) = assay: Luminex beads; MAb 1/100; competitor rHLA-E
HLA-B*0801 (human) = HLA-B*0801 (human) (UniProt P01889); assay: Luminex beads; MAb 1/100; competitor rHLA-E
HLA-B*4801 (human) = HLA-B*4801 (human) (UniProt P01889); assay: Luminex beads; MAb 1/100; competitor rHLA-E
HLA-B*1513 (B77) (human) = assay: Luminex single-antigen beads; MEM-E/02 1/600; serum Mi92 1/100
[1] = target: HLA-Cw*1203 (Cw12) (human) (UniProt P10321); assay: as above
HLA-B*4403 (B44) (human) = assay: as above
HLA-B*4501 (B45) (human) = assay: as above
HLA-A*3301 (A33) (human) = assay: as above
HLA-A*2403 (A24) (human) = assay: as above
HLA-B*4901 (B49) (human) = assay: as above
HLA-B*6701 (B67) (human) [2] = target: HLA-B*6701 (B67) (human) (UniProt P01889); assay: as above
HLA-B*4801 (B48) (human) = HLA-B*4801 (B48) (human) (UniProt P01889); assay: as above
HLA-A*2501 (A25) (human) = assay: as above
HLA-A*2601 (A26) (human) = assay: as above
HLA-A*2402 (A24) (human) [3] = target: HLA-A*2402 (A24) (human) (UniProt P04439); assay: as above
HLA-B*3901 (B39) (human) [4] = target: HLA-B*3901 (B39) (human) (UniProt P01889); assay: as above
HLA-A*3201 (A32) (human) = assay: as above
HLA-B*1511 (B75) (human) = HLA-B*1511 (B75) (human) (UniProt P01889); assay: as above
HLA-B*1301 (B13) (human) = assay: as above
HLA-B*3801 (B38) (human) = assay: as above
HLA-B*1401 (B64) (human) = HLA-B*1401 (B64) (human) (UniProt P01889); assay: as above
HLA-B*5401 (B54) (human) = HLA-B*5401 (B54) (human) (UniProt P01889); assay: as above
HLA-B*0801 (B8) (human) = HLA-B*0801 (B8) (human) (UniProt P01889); assay: as above
[5] = target: HLA-Cw*0401 (Cw4) (human); assay: as above
HLA-B*2708 (B27) (human) [6] = target: HLA-B*2708 (B27) (human) (UniProt P01889); assay: as above
HLA-B*1801 (B18) (human) = assay: as above
HLA-B*5301 (B53) (human) = assay: as above
HLA-A*3002 (A30) (human) = HLA-A*3002 (A30) (human) (UniProt P04439); assay: as above
HLA-B*6701 (B67) (human) [7] = target: HLA-B*6701 (B67) (human) (UniProt P01889); assay: Luminex single-antigen beads; MEM-E/02 1/600; serum Mi59 1/100
HLA-A*2402 (A24) (human) [8] = target: HLA-A*2402 (A24) (human) (UniProt P04439); assay: as above
HLA-B*3901 (B39) (human) [9] = target: HLA-B*3901 (B39) (human) (UniProt P01889); assay: as above
HLA-B*2708 (B27) (human) [10] = target: HLA-B*2708 (B27) (human) (UniProt P01889); assay: as above

- MFI (HLA-Cw*0202 (human)): 220 MFI
- MFI (HLA-Cw*1502 (human)): 170 MFI
- MFI (HLA-Cw*0304 (human)): 181 MFI
- MFI (HLA-Cw*1701 (human)): 376 MFI
- MFI (HLA-Cw*0702 (human)): 220 MFI
- MFI (HLA-B*1513 (human)): 256 MFI
- MFI (HLA-B*0801 (human)): 219 MFI
- MFI (HLA-B*4801 (human)): 224 MFI
Substance: murine monoclonal antibody (MAb) MEM-E/02

- MFI (HLA-B*1513 (B77) (human)): < 500 MFI
- % inhibition [1]: 65%
- MFI [1]: 788 MFI
- MFI (HLA-B*4403 (B44) (human)): 600 MFI
- MFI (HLA-B*4501 (B45) (human)): < 500 MFI
- MFI (HLA-A*3301 (A33) (human)): 522 MFI
- MFI (HLA-A*2403 (A24) (human)): < 500 MFI
- MFI (HLA-B*4901 (B49) (human)): 890 MFI
- MFI (HLA-B*6701 (B67) (human) [2]): < 500 MFI
- MFI (HLA-B*4801 (B48) (human)): < 500 MFI
- MFI (HLA-A*2501 (A25) (human)): 722 MFI
- MFI (HLA-A*2601 (A26) (human)): < 500 MFI
- MFI (HLA-A*2402 (A24) (human) [3]): < 500 MFI
- % inhibition (HLA-B*3901 (B39) (human) [4]): 60%
- MFI (HLA-B*3901 (B39) (human) [4]): 737 MFI
- MFI (HLA-A*3201 (A32) (human)): < 500 MFI
- MFI (HLA-B*1511 (B75) (human)): 946 MFI
- MFI (HLA-B*1301 (B13) (human)): 978 MFI
- MFI (HLA-B*3801 (B38) (human)): < 500 MFI
- % inhibition (HLA-B*1401 (B64) (human)): 7%
- MFI (HLA-B*1401 (B64) (human)): 701 MFI
- MFI (HLA-B*5401 (B54) (human)): < 500 MFI
- MFI (HLA-B*0801 (B8) (human)): 990 MFI
- % inhibition [5]: 60%
- MFI [5]: 826 MFI
- MFI (HLA-B*2708 (B27) (human) [6]): < 500 MFI
- MFI (HLA-B*1801 (B18) (human)): < 500 MFI
- MFI (HLA-B*5301 (B53) (human)): 797 MFI
- MFI (HLA-A*3002 (A30) (human)): < 500 MFI
- MFI (HLA-B*6701 (B67) (human) [7]): < 500 MFI
- MFI (HLA-A*2402 (A24) (human) [8]): < 500 MFI
- MFI (HLA-B*3901 (B39) (human) [9]): < 500 MFI
- MFI (HLA-B*2708 (B27) (human) [10]): < 500 MFI
Substance: murine monoclonal antibody MAb MEM-E/02
